Measured values published in PMC2121097.
pKd: −log10 of the molar value. Read-outs that look alike come from different tables or passages of the source.

How the values were obtained:
[1] = biological target: Dictyostelium actin filaments (F-actin) (Dictyostelium) (UniProt P07830); test: steady-state actin critical concentration, sedimentation
[2] = biological target: Dictyostelium actin filaments (F-actin) (Dictyostelium) (UniProt P07830); test: steady-state actin critical concentration, calibrated pyrene fluorescence
[3] = biological target: Dictyostelium actin filaments (F-actin) (Dictyostelium) (UniProt P07830); test: steady-state actin critical concentration, uncalibrated pyrene fluorescence
[4] = biological target: Dictyostelium actin monomer (G-actin) (Dictyostelium) (UniProt P07830); test: other fluorescence titration
[5] = biological target: Dictyostelium actin monomer (G-actin) (Dictyostelium) (UniProt P07830); test: other fluorescence titration; remark: listed apart in the source
[6] = biological target: Dictyostelium actin monomer (G-actin) (Dictyostelium) (UniProt P07830); test: other fluorescence titration; remark: listed apart in the source

- pKd [1]: 6.40
- pKd [2]: 6.85
- pKd [3]: 6.04
- pKd [4]: 6.15
- pKd [5]: 5.41
- pKd [6]: 5.85
Substance: Dictyostelium elongation factor 1 alpha (EF1 alpha) (from UniProt P0CT31 1-453) (natural protein)
